Results published in patent publication US20160304615A1 (Regeneron, published 2016).

B1: H1H1911N (antibody, human IgG1, V domains shown)
VH: QVQLVESGGGVVQPGRSLRLSCAASGFTFSRYGIHWVRQAPGKGLEWVAVIWHDGSNKYYADSVKGRFTISRDNSKNTLYLQMTSLRAEDTAVYYCARDGLEIRDHYYYGMDVWGQGTTVTVSS
VL: DIQMTQSPSTLSASVGDRVTITCRASQSTSSWLAWYQQKPGKAPTLLIYKASSLESGVPSKFSGSGSGTEFTLTISSLQPDDFATYYCQQYNRYSRTFGQGTKVEIK
notes: Human IgG1 Fc; also called H2M1911N (same variable domains)
B2: H1H1912N (antibody, human IgG1, V domains shown)
VH: EVQLVESGGGLVQPGRSLRLSCAASGFTFDDYAMHWVRQVPGKGLEWVSGISWNSGSIGYADSVKGRFTISRDNAKNSLYLQMNSLRAEDTALYYCAKDIHDYGKDYYYYYGMDVWGQGTTVTVSS
VL: EIALTQSPGTLSLSPGERATLSCRASQSVSSTYLAWYQQKPGQAPRLLIYGASSRATGIPDRFSGSGSGTDFTLTISRLEPEDFAVYYCQQYDSSPITFGQGTRLEIK
notes: Human IgG1 Fc; also called H2M1912N (same variable domains)
B3: H1H2194P (antibody, human IgG1, V domains shown)
VH: QVQLVQSGAEVKKPGASVKVSCKASGYTFTSYDINWVRQATGQGLEWMGWINPNSDYTGYVQKFQGRVTMTRDTSISTAYMELSSLRSEDTAVYYCATSRWSEHFHHWGQGTLVTVSS
VL: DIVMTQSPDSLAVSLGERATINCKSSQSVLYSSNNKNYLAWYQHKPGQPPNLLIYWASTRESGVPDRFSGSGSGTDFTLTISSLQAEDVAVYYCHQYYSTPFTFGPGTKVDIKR
notes: Human IgG1 Fc; also called H1H2194N
B4: H1H2195P (antibody, human IgG1, V domains shown)
VH: QVQLVESGGGVVQPGRSRRLSCVGSGFIFSSYGMHWVRQAPGKGLEWVALIFYDGSNEYYVDSVKGRFTISRDNSKNTLYLQMNSLRAEDTAVYYCAREGYSQRYKYYFGMDVWGQGTTVTVSS
VL: DIQMTQSPSSVSASVGDRVTITCRASQGISSWLAWYQQQPGKAPKLLIYAASSLQSGVPSRFSGSGSGTDFTLTISSLQPEDFATYYCQQTNSFPLTFGGGTKVEIKR
notes: Human IgG1 Fc; also called H1H2195N
B5: H1H1913N (antibody, human IgG1, V domains shown)
VH: QVQLQQWGAGLLKPSETLSLTCAVYGGSFSGDYWSWIRQSPGKGLEWIGEINHSGSTNYNPSLKSRVTISIDTSKNQFSLKLSSVTAADTAVYYCARGGGDYYYGMDVWGLGTTVTVSS
VL: AIQMTQSPSSLSASVGDRVTITCRASQGIGNDLGWYQQKPGKAPNLLIYATSSLQSGVPSRFSGSGSGTDFTLTISSLQPEDFATYYCLQDYNYPWTFGQGTKVEIK
notes: Human IgG1 Fc; also called H3M1913N (same variable domains)
B6: H1H1915N (antibody, human IgG1, V domains shown)
VH: QVQLVESGGGVVQPGRSLRLSCAASGFTFSAYAMHWVRQAPGKGLEWVAVIWYDGSNKNYADSVKGRFTVSRDNSKNTLYLEMNSLRAEDTAVYYCARDLMVGVTNYWGQGTLVTVST
VL: DVVMTQSPLSLPVALGQPASISCRSSQSLVYTDGNTYLNWFHQRPGQSPRRLIYKVSNRDSGVPDRFTGSGSGTDFTLKISRVEAEDVGVFYCMQGSHWPPYTFGQGTKLEIK
notes: Human IgG1 Fc; also called H2M1915N (same variable domains)
B7: H1H1863N2(Fuc+) (antibody, human IgG1, V domains shown)
VH: EVQLVESGGGLVQPGGSLRLSCAASGFPFSSYDMHWVRQATGKGLEWVSAIGTAGATYYPGSVKGRFTISRENAKNSLYLQMNSLRAGDTAVYYCARGDYVWGTYRPLFDYWGQGTLVTVSS
VL: DIQLTQSPSFLSASVGDRVTITCWASQGINNYLAWYQQKPGKAPKLLIYAASTLQTGVPSRFSGSGSGTEFTLTISSLQPEDFATYYCQQLNSYPLTFGGGTKVEIK
notes: the numerical identifier ties them; also called H1H863N2; H1H863N2(Fuc+)

Target: T1, full-length hEGFRvIII on cells (human, UniProt P00533 298-1210)
Experiment: cell-based or functional assay

Binder | Fluorescent Intensity of vesicles 4° C., Mean | Fluorescent Intensity of vesicles 37° C., Mean
B1 | 29800 | 280000
B2 | 4910 | 370000

Target: T2, wild-type human EGFR on cells (human, UniProt P00533 25-1210)
T2 construct: Stands for transfected HEK293/hEGFRwt, endogenous EGFR of A431 and of parental HEK293 cells, and human EGFR of hEGFR mice; the cell line is named under assay; also called EGFRwt; hEGFRwt
Experiment: FACS, A431 cells, PE secondary antibody
Procedure: (§1) To determine the specificity of the anti-EGFRvIII mAbs, their binding to HEK293, HEK293 cells expressing EGFRvIII (HEK293/EGFRvIII) and A431 cells, was analyzed by fluorescence activated cell sorting (FACS). HEK293/EGFRvIII cells were prepared by transfecting HEK293 cells with neomycin resistant DNA vectors constitutively expressing full-length hEGFRvIII (SEQ ID NO:147) using LIPOFECTAMINE™ 2000 transfection reagent (INVITROGEN™). At two days post-transfection, cells were placed under G418 selection for approximately two weeks. Populations positively expressing EGFRvIII were isolated via fluorescence activated cell sorting (FACS). The HEK293 cells expressing ˜3×10⁶ copies of EGFRvIII per cell were used in the experiment. […] In another set of experiment, anti-EGFRvIII antibodies were directly conjugated via their lysine residues with the fluorescent dye, ALEXA FLUOR® 488 Dye (INVITROGEN™), thereby eliminating the step using the secondary antibody. […] Controls I, II, III, IV and V are described above. MFI: Mean Fluorescence Intensity.

Binder | A431 MFI [MFI] | Fold Above Background [fold]
B1 | 3140 | 2.2
B3 | 2290 | 1.6
B4 | 2230 | 1.6

Target: T3, EGFR-mFc (human)
T3 construct: Soluble dimeric protein
Experiment: SPR 37C, receptor-capture; 37 C, receptor-capture format (EGFR-mFc captured)
Procedure: (§2) Measurements were conducted on a T100 BIACORE™ instrument. […] In the receptor-capture format, either EGFRvIII-mFc or EGFR-mFc, was captured on the BIACORE™ chip and the respective antibodies flowed over. Kinetic association (kₐ) and dissociation (kd) rate constants were determined by processing and fitting the data to a 1:1 binding model using Scrubber 2.0 curve fitting software. Binding dissociation equilibrium constants (KD) and dissociative half-lives (t_{1/2}) were calculated from the kinetic rate constants as: KD (M)=kd/kₐ; and t₁₁₂ (min)=ln2/(60*kd).

Binder | Kd [nM] | T½ [min] | koff [s⁻¹] | kon [M⁻¹ s⁻¹]
B1 | 224 | 7 | 0.00174 | 7770
B5 | ≤ 0.169 |  | ≤ 1e-06 | 5930
B6 | 184 | 1.4 | 0.00801 | 43500
B2 | 22.9 | 13 | 0.000914 | 39900

Target: T4, EGFRvIII-mFc (human)
T4 construct: Soluble dimeric protein
Experiment: SPR 37C, receptor-capture; 37 C, receptor-capture format (EGFRvIII-mFc captured)
Procedure: as §2

Binder | Kd [nM] | T½ [min] | koff [s⁻¹] | kon [M⁻¹ s⁻¹]
B1 | 19.5 | 18 | 0.000643 | 32900
B6 | 3.2 | 35 | 0.000328 | 100000

Target: T5, EGFRvIII-mmh (human, UniProt P00533 298-647, limits assumed)
T5 construct: Soluble monomeric protein; also called hEGFRvIII-mmh; hEGFRvIII.mmh
Experiment: ELISA; ELISA, 25 C, EGFRvIII-mmh coated on the plate
Excerpt: (§3) To further characterize anti-hEGFRvIII mAbs, their binding specificity was examined by ELISA. […] Also, coated was an irrelevant peptide (control peptide) with or without biotin at its N-terminal. […] The plates were then washed and bound anti-EGFRvIII mAbs were detected with anti-human Fc antibodies conjugated with horse-radish peroxidase (HRP). […] Data analysis used a sigmoidal dose-response model within PRISM™ software.

Binder | EC50 [nM]
B1 | 0.0748
B6 | 0.167

Target: T6, EGFR-mmh (human, UniProt P00533 25-647, limits assumed)
T6 construct: Soluble monomeric protein; also called hEGFR-mmh
Experiment: ELISA; ELISA, 25 C, EGFR-mmh coated on the plate
Excerpt: as §3

Binder | EC50 [nM]
B1 | 9.06
B5 | 2.55
B2 | 0.0405

Target: T5, EGFRvIII-mmh
Experiment: ELISA
Excerpt: as §3

Binder | EC50 [pM]
B3 | 3.2
B5 | 2140
B4 | 4.9
B2 | 11.8

Target: T6, EGFR-mmh
Experiment: ELISA
Excerpt: as §3

Binder | EC50 [pM]
B3 | 3.7
B4 | 5.2

Target: T4, EGFRvIII-mFc
Experiment: SPR 37C, receptor-capture
Procedure: as §2

Binder | Kd [nM] | T½ [min] | koff [s⁻¹] | kon [M⁻¹ s⁻¹]
B3 | 0.394 | 157 | 7.38e-05 | 188000
B5 | ≤ 0.0159 | 11600 | ≤ 1e-06 | 63000
B4 | 0.106 | 456 | 2.53e-05 | 237000
B7 |  | 56 |  | 
B2 | 5.4 | 22 | 0.000537 | 99000

Target: T3, EGFR-mFc
Experiment: SPR 37C, receptor-capture
Procedure: as §2

Binder | Kd [nM] | T½ [min] | koff [s⁻¹] | kon [M⁻¹ s⁻¹]
B3 | 0.38 | 163 | 7.07e-05 | 187000
B4 | 0.231 | 222 | 5.2e-05 | 225000

Target: T1, full-length hEGFRvIII on cells
Experiment: FACS, HEK293/EGFRvIII cells, directly labeled antibody
Procedure: as §1

Binder | HEK293/EGFRvIII MFI [MFI] | Ratio (EGFRvIII MFI/parental MFI)
B1 | 55100 | 15.3
B5 | 239000 | 49.8
B6 | 73400 | 21.2
B2 | 122000 | 32.7

Target: T5, EGFRvIII-mmh
Experiment: SPR 37C, mAb-capture

Binder | Kd [nM] | T½ [min] | koff [s⁻¹] | kon [M⁻¹ s⁻¹]
B3 | 17 | 8 | 0.00137 | 81000
B5 | 7030 | 10 | 0.00114 | 163
B4 | 10.7 | 17 | 0.000694 | 64800
B2 | 899 | 0.7 | 0.0164 | 18300

Target: T6, EGFR-mmh
Experiment: SPR 37C, mAb-capture

Binder | Kd [nM] | T½ [min] | koff [s⁻¹] | kon [M⁻¹ s⁻¹]
B3 | 12.6 | 12 | 0.00096 | 76000
B4 | 9.2 | 22 | 0.000523 | 56600

Target: T4, EGFRvIII-mFc
Experiment: SPR 37C, mAb-capture

Binder | Kd [nM] | T½ [min] | koff [s⁻¹] | kon [M⁻¹ s⁻¹]
B3 | 2.33 | 52 | 0.000222 | 95400
B5 | 22.6 | 37 | 0.000316 | 14000
B4 | 1.1 | 103 | 0.000113 | 102000
B7 |  | 14 |  | 
B2 | 47.7 | 12 | 0.000971 | 20400

Target: T3, EGFR-mFc
Experiment: SPR 37C, mAb-capture

Binder | Kd [nM] | T½ [min] | koff [s⁻¹] | kon [M⁻¹ s⁻¹]
B3 | 2.43 | 58 | 0.000199 | 81000
B4 | 2.05 | 61 | 0.000189 | 92000

Target: T1, full-length hEGFRvIII on cells
Experiment: FACS, HEK293/EGFRvIII cells, PE secondary antibody
Procedure: as §1

Binder | HEK293/EGFRvIII MFI [MFI] | Ratio (EGFRvIII MFI/parental MFI)
B1 | 107000 | 59.1
B3 | 18600 | 18.9
B4 | 13500 | 11.5

Target: T2, wild-type human EGFR on cells
Experiment: FACS, A431 cells, directly labeled antibody
Procedure: as §1

Binder | A431 MFI [MFI] | Fold Above Background [fold]
B1 | 16000 | 2.4
B6 | 8440 | 1.2
B2 | 14300 | 2.1
